Data as given in patent publication US20100248328A1, “HYPERACTIVE VARIANTS OF 5-AMINOLEVULINATE SYNTHASE AND METHODS OF USE” (UNIVERSITY OF SOUTH FLORIDA, priority 2005, published 2010).
Like-named read-outs stand apart in the source and are kept apart here.

B1: WT: wild-type murine erythroid 5-aminolevulinate synthase (mALAS-2) (protein, UniProt P08680 50-587, looked up)
5-aminolevulinate synthase, …: QIHLKATKAGGDSPSWAKSHCPFMLSELQDRKSKIVQRAAPEVQEDVKTFKTDLLSTMDSTTRSHSFPSFQEPEQTEGAVPHLIQNNMTGSQAFGYDQFFRDKIMEKKQDHTYRVFKTVNRWANAYPFAQHFSEASMASKDVSVWCSNDYLGISRHPRVLQAIEETLKNHGAGAGGTRNISGTSKFHVELEQELAELHQKDSALLFSSCFVANDSTLFTLAKLLPGCEIYSDAGNHASMIQGIRNSGAAKFVFRHNDPGHLKKLLEKSDPKTPKIVAFETVHSMDGAICPLEELCDVAHQYGALTFVDEVHAVGLYGARGAGIGERDGIMHKLDIISGTLGKAFGCVGGYIASTRDLVDMVRSYAAGFIFTTSLPPMVLSGALESVRLLKGEEGQALRRAHQRNVKHMRQLLMDRGFPVIPCPSHIIPIRVGNAALNSKICDLLLSKHSIYVQAINYPTVPRGEELLRLAPSPHHSPQMMENFVEKLLLAWTEVGLPLQDVSVAACNFCHRPVHFELMSEWERSYFGNMGPQYVTTYA

How the values were obtained:
[1] = system: H1299 lung carcinoma cells; details: added to cells infected with ALAS construct; cited from earlier work
[2] = 37 C, pH 7.2; cited from earlier work
[3] = Temperature dependence of steady-state kinetics, Arrhenius plot, thermodynamic activation parameters; type: biochemical
Protocol: FIG. 9 is a graph showing the thermal dependence of the SS2 variant-catalyzed reaction. kcat values were calculated by performing steady-state kinetics at different temperatures. (A) an Arrhenius plot depicting the difference between the wild-type ([…]) and the SS2 variant-catalyzed (◯) reactions at 288, 293, 298, 303 and 308K. Error bars are plotted over and partially obscured by the data points.
(§1) The ALAS steady-state kinetic parameters of wild-type ALAS and the SS2 variant activity assays were also determined at 15, 25, and 35° C.
The natural log of the calculated values for the turnover numbers (lnkcat) were plotted vs. the inverse of temperature and the data were fit to the Arrhenius equation.
where Ea is the activation energy, R is the universal gas constant, T is the absolute temperature, and A is the frequency factor. The determined activation energies were then used to calculate the thermodynamic activation parameters, ΔH, ΔG and ΔS, as previously described (Hunter, et al. Transient kinetic studies support refinements to the chemical and kinetic mechanisms of aminolevulinate synthase. J Biol. Chem. 2007 Aug. 10; 282(32):23025-35. Epub 2007 May 7). The turnover numbers for each enzyme were used to construct an Arrhenius plot, from which the thermodynamic activation parameters were derived seen in Table 4.

[4] = ALAS steady-state activity, continuous spectrophotometric assay; type: biochemical; details: 20° C.
Protocol: ALAS steady-state activity of the ALAS active site loop variants was determined at 20° C. using a continuous spectrophotometric assay as described previously for wild-type ALAS (Hunter & Ferreira. A continuous spectrophotometric assay for 5-aminolevulinate synthase that utilizes substrate cycling. Anal Biochem. 1995 Apr. 10; 226(2):221-4). Rapid scanning stopped-flow measurements were performed using a model RSM-100 stopped-flow spectrophotometer (OLIS, Inc.). This instrument has a dead-time of approximately 2-ms and an observation chamber path length of 4 mm Spectral scans covering a wavelength range of 300-570 nm were collected at a rate of 1000 scans/s and then averaged to 62 scans/s in order to reduce the time course data files to an appropriate size for global fit analyses. The temperature of the syringes and the stopped-flow cell compartment was maintained at 20° C. by an external water bath. Pre-steady-state kinetic reactions of the variant enzymes were examined under single turnover conditions, using final concentrations of 60 μM enzyme, 120 mM glycine and 10 μM succinyl-CoA in 100 mM HEPES, pH 7.5 and 10% (v/v) glycerol as previously described (Hunter, & Ferreira. Pre-steady-state reaction of 5-aminolevulinate synthase. Evidence for a rate-determining product release J Biol Chem. 1999 Apr. 30; 274(18):12222-8). Single turnover data were evaluated using either a two- or three-kinetic-step mechanism as described by Equations 1 and 2, respectively (Hunter, & Ferreira. Pre-steady-state reaction of 5-aminolevulinate synthase. Evidence for a rate-determining product release J Biol Chem. 1999 Apr. 30; 274(18):12222-8).
as §1

[5] = Pre-steady-state single turnover reactions, rapid scanning stopped-flow (quinonoid intermediate, 510 nm); type: biochemical; details: 20° C.
Protocol: FIGS. 5(A) through (D) are graphs showing the single turnover reactions of isolated hyperactive ALAS variants. The pre-steady state kinetic parameters were determined under single turnover conditions (60 μM enzyme-glycine complex, 10 μM succinyl-CoA) at 20° C. by monitoring absorbance changes at 510 nm. The variant catalyzed reactions A4, D8, G7, A8, (panels A-D, respectively) resemble that of the wild-type enzyme in that quinonoid lifetime is observed as a single step of quinonoid intermediate formation and 2-step process of decay (Hunter, & Ferreira. Pre-steady-state reaction of 5-aminolevulinate synthase. Evidence for a rate-determining product release J Biol. Chem. 1999 Apr. 30; 274(18):12222-8).
FIGS. 6(A) through (D) are graphs showing the single turnover reactions of isolated hyperactive ALAS variants. The pre-steady state kinetic parameters were determined under single turnover conditions (60 μM enzyme-glycine complex, 10 μM succinyl-CoA) at 20° C. by monitoring absorbance changes at 510 nm. […]
FIG. 7 is a graph showing the SS2 variant catalyzed reaction. Equilibrium and pre-steady state kinetic parameters for the SS2 variant were determined at 20° C. by monitoring changes in absorbance at 510 nm associated with quinonoid intermediate lifetime, under single-turnover conditions.
ALAS steady-state activity of the ALAS active site loop variants was determined at 20° C. using a continuous spectrophotometric assay as described previously for wild-type ALAS (Hunter & Ferreira. A continuous spectrophotometric assay for 5-aminolevulinate synthase that utilizes substrate cycling. Anal Biochem. 1995 Apr. 10; 226(2):221-4). […] Single turnover data were evaluated using either a two- or three-kinetic-step mechanism as described by Equations 1 and 2, respectively (Hunter, & Ferreira. Pre-steady-state reaction of 5-aminolevulinate synthase. Evidence for a rate-determining product release J Biol Chem. 1999 Apr. 30; 274(18):12222-8). […]

| Molecule | Potentiation of photosensitivity [1] | Catalytic efficiency for the substrate glycine [2] [M⁻¹ s⁻¹] | ΔG^‡ (30° C.) ([3]; 30° C.) [kcal/mol] | ΔH^‡ (30° C.) ([3]; 30° C.) [kcal/mol] | ΔS^‡ (30° C.) ([3]; 30° C.) [cal/mol · K] | Slope/(K) of Arrhenius plot ([3]; 288-308 K) [K] | Ea, activation energy ([3]; 288-308 K, listed as WTALAS) [kcal/mol] | Q10 for the catalytic rate constant ([3]; steady-state temperature dependence) | Kcat [4] [s⁻¹] | Km ([4]; read-out: Km^Gly) [mM] | Km ([4]; read-out: Km^SCoA) [mM] | Qf, rate for quinonoid intermediate formation ([5]; 60 μM enzyme, 120 mM glycine, 10 μM succinyl-CoA) [s⁻¹] | Qd1, rate for first step of quinonoid intermediate decay [5] [s⁻¹] | Qd2, rate for second step of quinonoid intermediate decay [5] [s⁻¹] |
| --- | --- | --- | --- | --- | --- | --- | --- | --- | --- | --- | --- | --- | --- | --- |
| CC(=O)N(O)CCCCCNC(=O)CCC(=O)N(O)CCCCCNC(=O)CCC(=O)N(O)CCCCCN [desferrioxamine] | two-fold | – | – | – | – | – | – | – | – | – | – | – | – | – |
| B1 | – | 56.7 | 19 | 48 | −95 | −24000 | 48 | seven | 0.02 ± 0.01 | 14 ± 2 | 0.011 ± 0.001 | 0.8 | 0.53 | 0.01 |
